Data set [1] concerns HeLa Kyoto. The data set is described as follows: solubility in G1/S (NP-40 vs SDS abundance) (log2 ratio); higher = more soluble. Conditions: cell cycle stage: G1/S.
The subject of data set [2] is HeLa Kyoto. The data set is described as follows: solubility change mitosis vs G1/S (difference of NP-40 vs SDS log2 ratios) (log2 ratio difference); higher = more soluble in mitosis.
For data set [3], the system named is HeLa Kyoto. Description: melting temperature (median over replicates), in situ; higher = more thermally stable.
Data set [4] concerns HeLa Kyoto. The data set is described as follows: thermal stability score vs G1/S (z-score of summed log2 fold changes over temperatures); higher = more thermally stable than in G1/S.
The mark [5] stands for this setting: cell cycle stage: early G1 (4.5 h after nocodazole release).
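Throughout, for melting temperature (median over replicates), in situ: HeLa Kyoto cells synchronized by double thymidine or nocodazole block, proteins quantified by TMT10plex mass spectrometry, three independent biological replicates.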
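Throughout, for solubility change mitosis vs G1/S (difference of NP-40 vs SDS log2 ratios): synchronized HeLa Kyoto cells (double thymidine block for G1/S, nocodazole release for mitosis), protein amounts in NP-40 versus SDS lysates quantified by mass spectrometry, three biological replicates.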
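Throughout, for solubility in G1/S (NP-40 vs SDS abundance): HeLa Kyoto cells arrested at G1/S by double thymidine block, proteins quantified by TMT10plex mass spectrometry in mild NP-40 versus SDS extracts, three biological replicates.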
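Throughout, for thermal stability score vs G1/S (z-score of summed log2 fold changes over temperatures): synchronized HeLa Kyoto cells, proteins quantified by TMT10plex mass spectrometry, three biological replicates, mitosis taken 0.5 h after nocodazole release, G1/S directly after double thymidine block.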

As to MMP15, the “solubility in G1/S (log2)” value in data set [1] was -0.181. Moreover, the “solubility change mitosis (log2)” value in data set [2] was -0.0164. In addition, the melting temperature came out at 54.4 °C in data set [3] (cell cycle stage: G1/S) and 55.3 °C in data set [3] (cell cycle stage: mitosis). Moreover, the thermal stability score was -0.0989 in data set [4] (setting [5]) and -0.65 in data set [4] (cell cycle stage: mitosis).

Turning to “MDDREDLVYQAKLAEQAERYDEMVESMKKVAGMDVELTVEERNLLSVAYKNVIGARRASWRIISSIEQKEENKGGEDKLKMIREYRQMVETELKLICCDILDVLDKHLIPAANTGESKVFYYKMKGDYHRYLAEFATGNDRKEAAENSLVAYKAASDIAMTELPPTHPIRLGLALNFSVFYYEILNSPDRACRLAKAAFDDAIAELDTLSEESYKDSTLIMQLLRDNLTLWTSDMQGDGEEQNKEALQDVEDENQ [YWHAE]”, the “solubility in G1/S (log2)” value in data set [1] is 0.336. Besides, the “solubility change mitosis (log2)” value in data set [2] came to 0.181. The results for the melting temperature in data set [3] (cell cycle stage: G1/S) and in data set [3] (cell cycle stage: mitosis) were 55.3 °C and 55.8 °C, respectively. In addition, the thermal stability score was -1.18 in data set [4] (setting [5]) and -2.71 in data set [4] (cell cycle stage: mitosis).

Take “MTDSKYFTTTKKGEIFELKAELNSDKKEKKKEAVKKVIASMTVGKDVSALFPDVVNCMQTDNLELKKLVYLYLMNYAKSQPDMAIMAVNTFVKDCEDPNPLIRALAVRTMGCIRVDKITEYLCEPLRKCLKDEDPYVRKTAAVCVAKLHDINAQLVEDQGFLDTLKDLISDSNPMVVANAVAALSEIAESHPSSNLLDLNPQSINKLLTALNECTEWGQIFILDCLANYMPKDDREAQSICERVTPRLSHANSAVVLSAVKVLMKFMEMLSKDLDYYGTLLKKLAPPLVTLLSAEPELQYVALRNINLIVQKRPEILKHEMKVFFVKYNDPIYVKLEKLDIMIRLASQANIAQVLAELKEYATEVDVDFVRKAVRAIGRCAIKVEQSAERCVSTLLDLIQTKVNYVVQEAIVVIKDIFRKYPNKYESVIATLCENLDSLDEPEARAAMIWIVGEYAERIDNADELLESFLEGFHDESTQVQLQLLTAIVKLFLKKPTETQELVQQVLSLATQDSDNPDLRDRGYIYWRLLSTDPVAAKEVVLAEKPLISEETDLIEPTLLDELICYIGTLASVYHKPPSAFVEGGRGVVHKSLPPRTASSESAESPETAPTGAPPGEQPDVIPAQGDLLGDLLNLDLGPPVSGPPLATSSVQMGAVDLLGGGLDSLMGDEPEGIGGTNFVAPPTAAVPANLGAPIGSGLSDLFDLTSGVGTLSGSYVAPKAVWLPAMKAKGLEISGTFTRQVGSISMDLQLTNKALQVMTDFAIQFNRNSFGLAPAAPLQVHAPLSPNQTVEISLPLSTVGSVMKMEPLNNLQVAVKNNIDVFYFSTLYPLHILFVEDGKMDRQMFLATWKDIPNENEAQFQIRDCPLNAEAASSKLQSSNIFTVAKRNVEGQDMLYQSLKLTNGIWVLAELRIQPGNPSCTDLELSLKCRAPEVSQHVYQAYETILKN [AP1B1]”: the “solubility in G1/S (log2)” value in data set [1] was 0.297. The “solubility change mitosis (log2)” value in data set [2] was -0.225. The melting temperature stood at 51.7 °C in data set [3] (cell cycle stage: G1/S) and 51.1 °C in data set [3] (cell cycle stage: mitosis). Moreover, the thermal stability score in data set [4] (setting [5]) is -0.616; in data set [4] (cell cycle stage: mitosis), 0.595.

Take “MRKGVLKDPEIADLFYKDDPEELFIGLHEIGHGSFGAVYFATNAHTSEVVAIKKMSYSGKQTHEKWQDILKEVKFLRQLKHPNTIEYKGCYLKEHTAWLVMEYCLGSASDLLEVHKKPLQEVEIAAITHGALHGLAYLHSHALIHRDIKAGNILLTEPGQVKLADFGSASMASPANSFVGTPYWMAPEVILAMDEGQYDGKVDIWSLGITCIELAERKPPLFNMNAMSALYHIAQNDSPTLQSNEWTDSFRRFVDYCLQKIPQERPTSAELLRHDFVRRDRPLRVLIDLIQRTKDAVRELDNLQYRKMKKILFQETRNGPLNESQEDEEDSEHGTSLNREMDSLGSNHSIPSMSVSTGSQSSSVNSMQEVMDESSSELVMMHDDESTINSSSSVVHKKDHVFIRDEAGHGDPRPEPRPTQSVQSQALHYRNRERFATIKSASLVTRQIHEHEQENELREQMSGYKRMRRQHQKQLIALENKLKAEMDEHRLKLQKEVETHANNSSIELEKLAKKQVAIIEKEAKVAAADEKKFQQQILAQQKKDLTTFLESQKKQYKICKEKIKEEMNEDHSTPKKEKQERISKHKENLQHTQAEEEAHLLTQQRLYYDKNCRFFKRKIMIKRHEVEQQNIREELNKKRTQKEMEHAMLIRHDESTRELEYRQLHTLQKLRMDLIRLQHQTELENQLEYNKRRERELHRKHVMELRQQPKNLKAMEMQIKKQFQDTCKVQTKQYKALKNHQLEVTPKNEHKTILKTLKDEQTRKLAILAEQYEQSINEMMASQALRLDEAQEAECQALRLQLQQEMELLNAYQSKIKMQTEAQHERELQKLEQRVSLRRAHLEQKIEEELAALQKERSERIKNLLERQEREIETFDMESLRMGFGNLVTLDFPKEDYR [TAOK3]”: in data set [1], the “solubility in G1/S (log2)” value was -0.118. The “solubility change mitosis (log2)” value in data set [2] was -0.0814. Also, the melting temperature is 50.9 °C in data set [3] (cell cycle stage: G1/S) and 50.5 °C in data set [3] (cell cycle stage: mitosis). In addition, the thermal stability score is -0.159 in data set [4] (setting [5]) and -0.329 in data set [4] (cell cycle stage: mitosis).

As to “MAPKGSSKQQSEEDLLLQDFSRNLSAKSSALFFGNAFIVSAIPIWLYWRIWHMDLIQSAVLYSVMTLVSTYLVAFAYKNVKFVLKHKVAQKREDAVSKEVTRKLSEADNRKMSRKEKDERILWKKNEVADYEATTFSIFYNNTLFLVVVIVASFFILKNFNPTVNYILSISASSGLIALLSTGSK [SSR3]”, the “solubility in G1/S (log2)” value in data set [1] was -0.131. Moreover, the “solubility change mitosis (log2)” value in data set [2] came to 0.126. The melting temperature came out at 57.8 °C in data set [3] (cell cycle stage: G1/S) and 57.2 °C in data set [3] (cell cycle stage: mitosis). Further, the results for the thermal stability score in data set [4] (setting [5]) and in data set [4] (cell cycle stage: mitosis) were 1.59 and -0.0489, respectively.

Consider “MNNSLENTISFEEYIRVKARSVPQHRMKEFLDSLASKGPEALQEFQQTATTTMVYQQGGNCIYTDSTEVAGSLLELACPVTTSVQPQTQQEQQIQVQQPQQVQVQVQVQQSPQQVSAQLSPQLTVHQPTEQPIQVQVQIQGQAPQSAAPSIQTPSLQSPSPSQLQAAQIQVQHVQAAQQIQAAEIPEEHIPHQQIQAQLVAGQSLAGGQQIQIQTVGALSPPPSQQGSPREGERRVGTASVLQPVKKRKVDMPITVSYAISGQPVATVLAIPQGQQQSYVSLRPDLLTVDSAHLYSATGTITSPTGETWTIPVYSAQPRGDPQQQSITHIAIPQEAYNAVHVSGSPTALAAVKLEDDKEKMVGTTSVVKNSHEEVVQTLANSLFPAQFMNGNIHIPVAVQAVAGTYQNTAQTVHIWDPQQQPQQQTPQEQTPPPQQQQQQLQVTCSAQTVQVAEVEPQSQPQPSPELLLPNSLKPEEGLEVWKNWAQTKNAELEKDAQNRLAPIGRRQLLRFQEDLISSAVAELNYGLCLMTREARNGEGEPYDPDVLYYIFLCIQKYLFENGRVDDIFSDLYYVRFTEWLHEVLKDVQPRVTPLGYVLPSHVTEEMLWECKQLGAHSPSTLLTTLMFFNTKYFLLKTVDQHMKLAFSKVLRQTKKNPSNPKDKSTSIRYLKALGIHQTGQKVTDDMYAEQTENPENPLRCPIKLYDFYLFKCPQSVKGRNDTFYLTPEPVVAPNSPIWYSVQPISREQMGQMLTRILVIREIQEAIAVANASTMH [QRICH1]”, for which the “solubility in G1/S (log2)” value in data set [1] is 0.184. Moreover, in data set [2], the “solubility change mitosis (log2)” value was -0.197. The results for the melting temperature in data set [3] (cell cycle stage: G1/S) and in data set [3] (cell cycle stage: mitosis) were 47 °C and 49.3 °C, respectively. The results for the thermal stability score in data set [4] (setting [5]) and in data set [4] (cell cycle stage: mitosis) were 3.16 and 5.23, respectively.

(Values after the supplement of paper PMC5998384.)
